Reference: patent US20120308580A1 (NATIONAL UNIVERSITY OF SINGAPORE, published 2012)

Columns and labels:
[1] = biological target: T1, HBc19-27I peptide / HLA-A201 complex on T2 cells (human; Hepatitis B virus); experiment: flow cytometry, peptide pulsed T2 cells (FIG. 8A, peptides of Table 4)
T1 construct: whole, on cells

[2] = biological target: c18-27 peptide alone (free, not on HLA-A2) (Hepatitis B virus); experiment: pre-incubation with free peptide, then flow cytometry on the specific target
[3] = biological target: T2, FEC11 (EBV) peptide / HLA-A201 complex on T2 cells (human; EBV); experiment: flow cytometry, peptide pulsed T2 cells
[4] = biological target: T3, HBV env, 348-357 peptide / HLA-A201 complex on T2 cells (human; Hepatitis B virus); experiment: flow cytometry, peptide pulsed T2 cells
T3 construct: whole, on cells

[5] = biological target: T4, Mage3, 271-279 peptide / HLA-A201 complex on T2 cells (human); experiment: flow cytometry, peptide pulsed T2 cells
T4 construct: whole, on cells; also called Mage3-271-79

[6] = biological target: T5, HBV pol, 455-463 peptide / HLA-A201 complex on T2 cells (human; Hepatitis B virus); experiment: flow cytometry, peptide pulsed T2 cells
T5 construct: whole, on cells

[7] = biological target: T6, HBV env183-191 peptide / HLA-A201 complex on cells (human; Hepatitis B virus)
[8] = biological target: T2, FEC11 (EBV) peptide / HLA-A201 complex …; experiment: flow cytometry, peptide pulsed T2 cells (FIG. 8A, peptides of Table 4)
[9] = biological target: T5, HBV pol, 455-463 peptide / HLA-A201 …; experiment: as above
[10] = biological target: T6, HBV env183-191 peptide / HLA-A201 …; remark: listed apart in the source

Binder	binding result [1]	binding result [2]	binding result [3]	binding result [4]	binding result [5]	binding result [6]	binding result [7]	binding result [8]	binding result [9]	EC50 (read off the curve) [10] [µg]
c18/A2 mAb (antibody, V domains shown, also called HBc18-27 antibody) VH: QVQLQQSGPELVKPGASVKISCKASGHTFTSYDINWVKQRPGQGLEWIGWIYPGDGSTKYNEKFKGKATLTADKSSSTAYMQLSSLTSENSAVYFCARRDYGYSYAMDYWGQGTSVTVSS VL: DIQMTQSPASLSTSVGETVTITCRASGNIHNYLAWYQQKQGKSPQLLVYNAKTLADGVPSRFSGSGSGTQFSLKINSLQPEDFGSYYCQHFWSTPFTFGSGTKLEIK	no binding (tested: 1 µM peptide; 0.5 µg mAb)	no binding (tested: 1 uM)	no binding (tested: 1 µM peptide; 0.5 µg mAb)	no binding (tested: 1 µM peptide; 0.5 µg mAb)	no binding (tested: 1 µM peptide; 0.5 µg mAb)	no binding (tested: 1 µM peptide; 0.5 µg mAb)	no binding (tested: 0.5 ug mAb in 50 ul)			
E183/A2 mAb (antibody, V domains shown, also called HBe183-191 antibody; antibody against HBe183-191) VH: QVQLQQPGAEFVKPGASVRLSCKASGYTFSSYWMHWVKQRPGQGLEWIGEIDPSDSYTNYNQKFKGKATLTVDKSSSTAYMQFSSLTSEDSAVYYCATSGYDVGVDYWGQGTTLTVSS VL: DIQMTQSPASLSASVGETVTITCRASENIYSYLAWYHQKQGKSPQLLVYIAKTLAEGVPSRFSGSGSGTQFSLKIDSLQPEDVGSYYCQHHYGTPYTFGGGTKLEIK	no binding (tested: 1 µM peptide; 0.5 µg mAb)							no binding (tested: 1 µM peptide; 0.5 µg mAb)	no binding (tested: 1 µM peptide; 0.5 µg mAb)	~0.01
